Test results from PMC2577008, “The Transcriptional Repressor Protein NsrR Senses Nitric Oxide Directly via a [2Fe-2S] Cluster” (PLoS ONE, 2008).

How the values were obtained:
[1] = target: the molecule itself; experiment: AUC; sedimentation equilibrium at 16,000, 18,000 and 20,000 rpm, absorbance at 260 nm; 10 uM monomeric NsrR with 2 uM 30 bp double-stranded oligonucleotide (hmpA2 or hmpA1 binding site); 50 mM Tris pH 8.0 (legend: pH 7.0), 100 mM NaCl, 1 mM dithiothreitol; one-component fit; the mass of the DNA-protein complex is measured
[2Fe-2S] NsrR (holo) [2] = target: T1, [2Fe-2S] NsrR (holo) (Streptomyces coelicolor, UniProt Q9L132 1-148); experiment: analytical ultracentrifugation (sedimentation equilibrium); [2Fe-2S] cluster; 2 uM DNA, 10 uM NsrR; mass 45.0 kDa with NsrR; EMSA: 10 mM Tris-HCl pH 7.5, 60 mM KCl, on ice 2 min, ~20 ng probe, NsrR diluted to 500 nM in 50 mM Tris pH 7.0 (legend: 50 mM Tris pH 7.0, 100 mM NaCl); AUC: 5; conditions: protein: recombinant; tags: none stated (pET21a; reverse primer includes the stop codon); chain copies: 2; blunt
T1 sequence: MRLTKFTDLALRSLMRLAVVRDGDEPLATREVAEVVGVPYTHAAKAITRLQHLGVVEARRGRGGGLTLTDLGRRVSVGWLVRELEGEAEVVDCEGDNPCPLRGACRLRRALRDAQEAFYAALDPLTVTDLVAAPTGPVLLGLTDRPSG

[2Fe-2S] NsrR (holo) [3] = target: T1, [2Fe-2S] NsrR (holo); experiment: analytical ultracentrifugation (sedimentation equilibrium); [2Fe-2S] cluster; 2 uM DNA, 10 uM NsrR; mass 17.4 to 47.3 kDa, homodimer; EMSA: 10 mM Tris-HCl pH 7.5, 60 mM KCl, on ice 2 min, ~20 ng probe, NsrR diluted to 500 nM in 50 mM Tris pH 7.0 (legend: 50 mM Tris pH 7.0, 100 mM NaCl); AUC: 5; conditions: protein: recombinant; tags: none stated (pET21a; reverse primer includes the stop codon); chain copies: 2; blunt
[2Fe-2S] NsrR (holo) [4] = target: T1, [2Fe-2S] NsrR (holo); experiment: analytical ultracentrifugation (sedimentation equilibrium); [2Fe-2S] cluster; 2 uM DNA, 10 uM NsrR; EMSA: 10 mM Tris-HCl pH 7.5, 60 mM KCl, on ice 2 min, ~20 ng probe, NsrR diluted to 500 nM in 50 mM Tris pH 7.0 (legend: 50 mM Tris pH 7.0, 100 mM NaCl); AUC: 5; conditions: protein: recombinant; tags: none stated (pET21a; reverse primer includes the stop codon); chain copies: 2; blunt

B1: NsrR from Streptomyces coelicolor ([2Fe-2S] NsrR) (natural protein, UniProt Q9L132 1-148, looked up)
chain: MRLTKFTDLALRSLMRLAVVRDGDEPLATREVAEVVGVPYTHAAKAITRLQHLGVVEARRGRGGGLTLTDLGRRVSVGWLVRELEGEAEVVDCEGDNPCPLRGACRLRRALRDAQEAFYAALDPLTVTDLVAAPTGPVLLGLTDRPSG
notes: NsrR (SCO7427), Rrf2 family transcriptional repressor of Streptomyces coelicolor; nsrR gene amplified from genomic DNA with primers from the start codon (CATATG...) to the stop codon (TCA... on the reverse primer); calculated monomer mass 15.9 kDa; Carries a [2Fe-2S] cluster as purified (on average 28% cluster incorporation); also called SCO7427; holo [2Fe-2S]; NsrR
**Q.** For B1, which “stoichiometry N” value [1] is on record?
**A.** The value was 2.

B2: hmpA1 30 bp oligonucleotide (dsDNA)
DNA 1: CTAAAACACGAATATCATCTACCAATTAAG
DNA 2: CTTAATTGGTAGATGATATTCGTGTTTTAG
**Q.** Does B2 bind ([2Fe-2S] NsrR (holo) [2])?
**A.** Result: binds

B3: hmpA2 30 bp oligonucleotide (dsDNA)
DNA 1: GGAAAACAAGCATCTGAGATCCCAGTTCGG
DNA 2: CCGAACTGGGATCTCAGATGCTTGTTTTCC
**Q.** Does B3 bind ([2Fe-2S] NsrR (holo) [3])?
**A.** Result: binds

B4: Control oligonucleotide (nsrR coding sequence) (dsDNA)
DNA 1: CCGCCTGCAGGCCCTGGGTGTG
DNA 2: CACACCCAGGGCCTGCAGGCGG
**Q.** Does B4 bind ([2Fe-2S] NsrR (holo) [4])?
**A.** Result: no binding
